Patent CN114478784A (SHAANXI PULSE ELEMENT BIOTECHNOLOGY LTD COMPANY, dated 2022)

B1: ENO2单克隆抗体1C5 (from hybridoma) (antibody, V domains shown)
VH: EVKLVESGGDLVQPGGSLRLSCATSGFTFTDYYMIWVRQPPGKALEWLGFIRNKANGYTTQYNASVKGRFTISRDNSQSILYLQMNTLRPEDSATYYCVRDRRGTTFAYWGQGTLVTVSA
VL: QAVVTQESALTTSPGETVTLTCRSNTGAVTTSNYANWVQEKPDHLFTGLIGGTYNRAPGVPARFSGSLIGDKAALTITGAQTEDEAIYFCSLWYSNHWVFGGGTKLTVL
notes: It was used as hybridoma culture supernatant in the assays; also called 1C5单克隆抗体; 杂交瘤细胞上清
B2: 1C5mk alone (recombinant 1C5 light chain, transfected without the heavy chain) (other)
light: QAVVTQESALTTSPGETVTLTCRSNTGAVTTSNYANWVQEKPDHLFTGLIGGTYNRAPGVPARFSGSLIGDKAALTITGAQTEDEAIYFCSLWYSNHWVFGGGTKLTVLRADAAPTVSIFPPSSEQLTSGGASVVCFLNNFYPKDINVKWKIDGSERQNGVLNSWTDQDSKDSTYSMSSTLTLTKDEYERHNSYTCEATHKTSTSPIVKSFNRNEC
notes: Tested as supernatant of 293T cells transfected with the light chain plasmid only; also called 轻链1C5mk

How the values were obtained:
[1] = target: T1, ENO2 with C-terminal flag tag (ENO2flag-pcDNA3.1, expressed in transfected cells, lysate) (UniProt P09104 2-434); assay: Western blot, lysate of cells transfected with ENO2flag-pcDNA3.1, hybridoma supernatant as primary antibody
T1 construct: Denatured cell lysate on SDS-PAGE / PVDF membrane (Western blot); also called ENO2抗原; not shown: C-terminal flag tag

[2] = target: T2, ENO2-GST (human ENO2 expressed from pGEX 4t-1, GST-purified) (human, UniProt P09104 1-434); assay: ELISA screening of hybridoma supernatants on coated ENO2-GST (100 ng/well), three rounds of subcloning
T2 construct: Expressed in E. coli BL21(DE3) and used to coat the ELISA plates; also called pGEX 4t-1载体表达的ENO2; ENO2抗原; not shown: GST tag of vector pGEX 4t-1

[3] = target: 纯化的ENO2蛋白 (purified ENO2 protein coated in Example 7) (UniProt P09104 1-434, limits assumed); assay: ELISA, ENO2 coated at 100 ng/well, 293T supernatant, HRP anti-heavy-chain IgG / anti-kappa secondary, OD450
Chain of 纯化的ENO2蛋白 (purified ENO2 protein coated in Example 7) (P09104 whole entry): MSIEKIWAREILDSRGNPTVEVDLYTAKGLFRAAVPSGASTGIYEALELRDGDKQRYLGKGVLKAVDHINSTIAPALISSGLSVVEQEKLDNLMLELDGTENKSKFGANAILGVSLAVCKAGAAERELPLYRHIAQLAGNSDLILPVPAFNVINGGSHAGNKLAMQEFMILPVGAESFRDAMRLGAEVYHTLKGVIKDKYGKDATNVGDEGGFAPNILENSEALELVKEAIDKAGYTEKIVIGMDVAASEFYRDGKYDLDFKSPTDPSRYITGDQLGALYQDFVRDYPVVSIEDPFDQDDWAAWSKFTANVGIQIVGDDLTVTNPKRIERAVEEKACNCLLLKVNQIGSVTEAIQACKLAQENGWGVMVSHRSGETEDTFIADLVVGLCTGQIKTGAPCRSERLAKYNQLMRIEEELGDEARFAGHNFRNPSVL

T1 sequence (P09104 2-434 limits assumed): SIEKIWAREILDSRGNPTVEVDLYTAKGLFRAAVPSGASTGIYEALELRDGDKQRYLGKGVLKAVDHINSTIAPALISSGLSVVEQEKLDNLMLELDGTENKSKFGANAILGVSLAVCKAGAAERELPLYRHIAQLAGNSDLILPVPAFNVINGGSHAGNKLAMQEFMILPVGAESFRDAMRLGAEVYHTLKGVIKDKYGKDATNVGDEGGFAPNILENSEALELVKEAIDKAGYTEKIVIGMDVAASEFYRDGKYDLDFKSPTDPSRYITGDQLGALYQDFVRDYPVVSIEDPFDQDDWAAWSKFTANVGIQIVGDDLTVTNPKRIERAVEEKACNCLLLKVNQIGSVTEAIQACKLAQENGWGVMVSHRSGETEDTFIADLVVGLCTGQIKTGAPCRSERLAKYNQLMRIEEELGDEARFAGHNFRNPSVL
T2 sequence (P09104 whole entry): as the sequence (P09104 whole entry) above

| Binder | binding result [1] | binding result [2] | binding result [3] |
| --- | --- | --- | --- |
| B1 | binds | binds |  |
| B2 |  |  | no binding |
